Assay [1] concerns the target human thyroid stimulating hormone receptor (TSHR) (human) (UniProt P16473). Briefly: cell-based or functional assay.
The target is the same in assay [2]. Briefly: receptor binding affinity; assay and reference not described (reference presumably wild type hTSH).

With “mutant TSH heterodimer comprising the α4K subunit (αQ13K+αE14K+αP16K+αQ20K) and a fusion protein of the TSH β subunit and the CTEP of hCG (from UniProt P0DN86 134-165) (ligand)”, in assay [1], the Vmax of cyclic AMP production in CHO-JP09 cells, compared to wild type TSH came to 1.5 fold; the in vitro activity (cyclic AMP production in CHO-JP09 cells) over that of the α4K/wild type β heterodimer is 3 to 4 fold; the potency in stimulation of cyclic AMP production in CHO-JP09 cells, compared to wild type TSH turned out to be 200 fold.
For “α4K/β3R hTSH analog (heterodimer of α4K mutant α subunit and β3R mutant TSH β subunit) (from UniProt P01215 25-116; P01222 21-132) (ligand)”, the fold increase in binding affinity in assay [2] is under 50000 fold. Also, in assay [1], the hormone potency was under 1300 fold.

The record behind these values is patent US20040266665A1.
